The assay concerns the target T1, His-ABI1 (Arabidopsis, UniProt P49597 1-434).
T1 construct: ABI1, type 2C protein phosphatase (PP2C), Arabidopsis; ORF subcloned into pET28a via BamH I and Hind III sites; source: Escherichia coli, purified
T1 sequence (looked up): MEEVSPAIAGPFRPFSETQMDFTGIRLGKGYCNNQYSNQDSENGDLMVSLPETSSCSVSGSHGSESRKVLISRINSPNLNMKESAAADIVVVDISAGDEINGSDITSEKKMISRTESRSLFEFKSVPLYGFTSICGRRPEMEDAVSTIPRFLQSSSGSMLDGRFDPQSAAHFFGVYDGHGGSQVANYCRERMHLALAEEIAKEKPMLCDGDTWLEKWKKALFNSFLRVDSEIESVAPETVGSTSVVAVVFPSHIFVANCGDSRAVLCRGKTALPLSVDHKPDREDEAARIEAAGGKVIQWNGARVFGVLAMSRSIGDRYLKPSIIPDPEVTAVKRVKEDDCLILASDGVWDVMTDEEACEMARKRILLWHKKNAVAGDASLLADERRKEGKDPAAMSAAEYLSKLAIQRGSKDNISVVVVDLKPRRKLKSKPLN
The experiment in a line: pull-down; competitive: 5 μg His-RCAR1/PYL9 with 0, 5 or 25 μg His-ABI1 or 25 μg His protein on immobilized GST-AtMYB44 (5 μg); 50 mM Tris-HCl pH 7.5, 100 mM NaCl, 1 mM EDTA, 0.05% β-mercaptoethanol, 0.2% Triton X-100, 10 mM MgCl2; 4 °C, 2 h; 10 μM ABA when indicated; anti-His blot. The settings on record: both partners purified.

Results on 1 molecule are retold here after PMC4057743, “Arabidopsis ABA Receptor RCAR1/PYL9 Interacts with an R2R3-Type MYB Transcription Factor, AtMYB44” (International Journal of Molecular Sciences, 2014).

B1: His-RCAR1/PYL9 (receptor, Arabidopsis, UniProt Q84MC7 1-187, looked up)
chain: MMDGVEGGTAMYGGLETVQYVRTHHQHLCRENQCTSALVKHIKAPLHLVWSLVRRFDQPQKYKPFVSRCTVIGDPEIGSLREVNVKSGLPATTSTERLELLDDEEHILGIKIIGGDHRLKNYSSILTVHPEIIEGRAGTMVIESFVVDVPQGNTKDETCYFVEALIRCNLKSLADVSERLASQDITQ
notes: ABA receptor RCAR1/PYL9, Arabidopsis; ORF subcloned into pET28a via EcoR I and Xho I sites; source: Escherichia coli, purified
As to B1, the binding result is “binds”.
